± gives the uncertainty stated by the source.
Assay: self-splicing fitness, log relative to wild type (ln ratio); higher = more splicing; Tetrahymena group I intron in knt gene, E. coli kanamycin selection, DiMSum; sequences stand for … in CUCUCU…GGAGGGAAAAGUUAUCAGGCAUGCACCUGGUAGCUAGUCUUUAAACCAAUAGAUUGCAUCGGUUUAAAAGGCAAGACCGUCAAAUUGCGGGAAAGGGGUCAACAGCCGUUCAGUACCAAGUCUCAGGGGAAACUUUGAGAUGGCCUUGCAAAGGGUAUGGUAAUAAGCUGACGGACAUGGUCCUAACCACGCAGCCAAGUCCUAAGUCAACAGAUCUUCUGUUGAUAUGGAUGCAGUUCACAGACUAAAUGUCGGUCGGGGAAGAUGUAUUCUUCUCAUAAGAUAUAGUCGGACCUCUCCUUAAUGGGAGCUAGCGGAUGAAGUGAUGCAACACUGGAGCCGCUGGGAACUAAUUUGUAUGCGAAAGUAUAUUGAUUAGUUUUGGAGUACUCGUGGUCG
Outline: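 DiMSum derived fitness as the error-weighted combination of fold changes across replicates, kanamycin versus no kanamycin, normalised to wild type. E. coli BL21(DE3) held the library, which randomised all eight P1ex-region intron nucleotides within the knt kanamycin-resistance gene on pET-22b(+). Six replicate transformations grew overnight at 37°C or 30°C on LB agar with or without 25 μg/mL kanamycin, also containing 100 μg/mL carbenicillin, 50 μM IPTG and 0.2% rhamnose, and pooled colonies were amplicon-sequenced on an Illumina HiSeq 2500.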

Sequence | self-splicing fitness (ln) (30 °C) | self-splicing fitness (ln) (37 °C)
AACGAGCAAUAUUACGUACA | -3.11 ± 0.17 | -2.19 ± 0.14
GUUUAGCAAUAUUACGUUGG | -3.81 ± 0.37 | -1.45 ± 0.23
UAAUAGCAAUAUUACGAAGG | -3.08 ± 0.17 | -1.6 ± 0.17
CUACAGCAAUAUUACGGAAA | -4.58 ± 0.46 | -2.9 ± 0.33
GCCCAGCAAUAUUACGUAUG | -3.42 ± 0.18 | -2.09 ± 0.18
CCCCAGCAAUAUUACGUUCU | -4.2 ± 0.27 | -3.05 ± 0.17
CCCAAGCAAUAUUACGACGC | -2.8 ± 0.22 | -0.545 ± 0.23
GUUUAGCAAUAUUACGAAGU | -2.65 ± 0.16 | -2.03 ± 0.38
UUUGAGCAAUAUUACGUGUA | -3.76 ± 0.35 | -2.78 ± 0.28
GUAUAGCAAUAUUACGUCCA | -1.58 ± 0.26 | -0.506 ± 0.23
GCUGAGCAAUAUUACGCGCU | -3.05 ± 0.31 | -1.53 ± 0.36
GGGUAGCAAUAUUACGAUCG | -0.211 ± 0.16 | -0.869 ± 0.22
GAAUAGCAAUAUUACGUUCC | -3.17 ± 0.32 | 
AAGAAGCAAUAUUACGGACU | 0.093 ± 0.073 | -0.443 ± 0.083
GACUAGCAAUAUUACGAUGU | -2.24 ± 0.15 | -1.53 ± 0.17
CAGCAGCAAUAUUACGCGUU | -3.04 ± 0.14 | -2.45 ± 0.17
GCACAGCAAUAUUACGGUGU | -3.58 ± 0.14 | -3.45 ± 0.29
AUCCAGCAAUAUUACGCUGU | -2.12 ± 0.14 | -2.02 ± 0.14
GCACAGCAAUAUUACGGCAG | -3.39 ± 0.2 | -1.4 ± 0.16
UCACAGCAAUAUUACGCACU | -2.56 ± 0.17 | -2.8 ± 0.24
AUGAAGCAAUAUUACGGUAG | -2.93 ± 0.17 | -2.03 ± 0.23
UCGUAGCAAUAUUACGUCGG | -1.49 ± 0.15 | -0.337 ± 0.17
UCCGAGCAAUAUUACGAAGU |  | -1.4 ± 0.29
AUAUAGCAAUAUUACGGAUU | -1.46 ± 0.14 | -1.26 ± 0.22
UACAAGCAAUAUUACGGUUA | -0.0426 ± 0.052 | -0.221 ± 0.063
GGCAAGCAAUAUUACGUUUG | -3 ± 0.13 | -2.83 ± 0.22

Sequence | self-splicing fitness (ln) (30 °C) | self-splicing fitness (ln) (37 °C)
CUCUAGCAAUAUUACGCUAG | -3.15 ± 0.25 | -1.85 ± 0.28
UUCAAGCAAUAUUACGGCUG | -2.62 ± 0.15 | -1.52 ± 0.2
CUCGAGCAAUAUUACGAGCA | -4.04 ± 0.42 | -2.09 ± 0.27
GUCGAGCAAUAUUACGAUCA | -1 ± 0.19 | -0.515 ± 0.21
UCCUAGCAAUAUUACGGACU | -3.59 ± 0.24 | -2.39 ± 0.22
AACUAGCAAUAUUACGCGAA | -2.81 ± 0.16 | -1.05 ± 0.12
CUUAAGCAAUAUUACGAGGG | -2.95 ± 0.21 | -2.85 ± 0.29
UUGCAGCAAUAUUACGACCG | -0.719 ± 0.065 | -0.144 ± 0.093
ACCAAGCAAUAUUACGGAUU | -2.62 ± 0.081 | -1.06 ± 0.081
UCCGAGCAAUAUUACGUGGC | -3.27 ± 0.24 | -2.52 ± 0.33
CGUCAGCAAUAUUACGAUCU | -1.09 ± 0.086 | -0.0587 ± 0.11
CAUCAGCAAUAUUACGGUGG | -0.952 ± 0.045 | -0.393 ± 0.068
AGUGAGCAAUAUUACGCAUC | -3.32 ± 0.28 | -0.505 ± 0.26
CGCGAGCAAUAUUACGCUGU | -2.6 ± 0.16 | -2.74 ± 0.31
AGAUAGCAAUAUUACGCUAG | -3.21 ± 0.4 | -2.24 ± 0.42
UGAUAGCAAUAUUACGGAUG | -1.33 ± 0.1 | -0.978 ± 0.12
AGCCAGCAAUAUUACGGAUC | -2.03 ± 0.1 | -1.25 ± 0.13
CGUGAGCAAUAUUACGGGUG | -0.878 ± 0.067 | -0.658 ± 0.078
GUAAAGCAAUAUUACGCGCC | -2.22 ± 0.2 | -1.03 ± 0.23
UAACAGCAAUAUUACGGUGC | -3.42 ± 0.23 | -2.86 ± 0.2
UCUAAGCAAUAUUACGUGAC | -2.88 ± 0.23 | -2.95 ± 0.28
AUACAGCAAUAUUACGCCCA | -0.142 ± 0.1 | -0.545 ± 0.14
UAGAAGCAAUAUUACGGACG | -0.286 ± 0.13 | 0.291 ± 0.16
CGGUAGCAAUAUUACGUUUG | -0.275 ± 0.082 | -0.027 ± 0.098
CCCUAGCAAUAUUACGCGCA | -2.49 ± 0.45 | -1.72 ± 0.32
ACACAGCAAUAUUACGUAUU | -3.09 ± 0.089 | -2.29 ± 0.13

Sequence | self-splicing fitness (ln) (30 °C) | self-splicing fitness (ln) (37 °C)
GGGCAGCAAUAUUACGACAC | -0.731 ± 0.26 | 0.302 ± 0.27
GCCCAGCAAUAUUACGAUCA | -1.65 ± 0.11 | -0.633 ± 0.1
GGACAGCAAUAUUACGGCGU | -0.74 ± 0.097 | -0.627 ± 0.11
AGAUAGCAAUAUUACGUUUC | -3.56 ± 0.29 | 
UAGUAGCAAUAUUACGCGUU | -2.86 ± 0.17 | -2.44 ± 0.23
AGCGAGCAAUAUUACGUUCU | -2.13 ± 0.14 | -0.892 ± 0.14
AAGCAGCAAUAUUACGACAA | -1.06 ± 0.075 | -0.277 ± 0.072
AUGUAGCAAUAUUACGUUAC | -4.22 ± 0.39 | -0.607 ± 0.2
UUAAAGCAAUAUUACGAAGG | -0.779 ± 0.14 | -1.09 ± 0.18
UCCUAGCAAUAUUACGCGAA | -2.24 ± 0.22 | -1.67 ± 0.17
UAUAAGCAAUAUUACGUGAG | -1.56 ± 0.1 | -1.12 ± 0.14
UUCAAGCAAUAUUACGUCUA | -0.495 ± 0.09 | 0.538 ± 0.081
UCGAAGCAAUAUUACGUGUG | -1.43 ± 0.061 | -0.757 ± 0.073
ACCUAGCAAUAUUACGUUAA | -2.38 ± 0.14 | -1.9 ± 0.17
UCUCAGCAAUAUUACGUGCU | -4.22 ± 0.23 | -2.61 ± 0.2
GGCUAGCAAUAUUACGAUUC | -0.162 ± 0.098 | -0.0286 ± 0.13
AGGAAGCAAUAUUACGCGGU | -4.18 ± 0.39 | -1.31 ± 0.2
GUCGAGCAAUAUUACGGCAG |  | -2.81 ± 0.44
UAAGAGCAAUAUUACGGAGC | -3.44 ± 0.4 | 
UGGAAGCAAUAUUACGAAUG | -0.927 ± 0.11 | -0.211 ± 0.12
AUCGAGCAAUAUUACGGACC | -0.501 ± 0.48 | 
CUAGAGCAAUAUUACGUGUG | -0.455 ± 0.055 | 0.162 ± 0.08
UCACAGCAAUAUUACGAGGU | -4.27 ± 0.36 | -2.54 ± 0.22
UCAGAGCAAUAUUACGUGCC | -2.62 ± 0.41 | 
UAGUAGCAAUAUUACGUUUG | -2.4 ± 0.18 | -0.923 ± 0.14

From the supplement of paper PMC7877785
